Reference: paper PMC545490, “Mapping and mutation of the conserved DNA polymerase interaction motif (DPIM) located in the C-terminal domain of fission yeast DNA polymerase δ subunit Cdc27” (BMC Molecular Biology, 2004)

B1: Gal4-Cdc27-273-352 (wild type) [S. pombe] / LexA-Pol1-278-527 [S. pombe] (parent complex)
chain 1: TEAKSAAPDEPQEIIKSVSGGKRRGKRKVKKYATTKDEEGFLVTKEEEVWESFSEDENISTGTSNVVRNKPTTVNIATKK
chain 2: PLSPMTPLSSELDVSAFSEINSKIKNVDVPASSYSSPISKVSPSDVTEEDGSLFFFWMDYTEMYGSLCLFGKVYDKATKQYVSCFLKVDGIMRSLYFLPRPSSSSVSEDSIAAQTKDVYDEVANLLSKRGVKEWKSRVSKYKYAFELEDVPRTADYLEVIYSYSYPALPTDLTGSSFSHVFGTNTALFEQFVLSRRVMGPCWLKIQQPNFDAVKNASWCRVEIGCSSPQNISVSFEKNEITSKTPPMTVM

Variants of: B1
Experiment: yeast two-hybrid, β-galactosidase activity in liquid cultures; parent: 150; read off a plot

Going from chain 1 TEAKSAAPDEPQEIIKSVSGGKRRGKRKVAAYATTKDEEGFLVTKEEEVWESFSEDENISTGTSNVVRNKPTTVNIATKK to chain 1 TEAKSAAPDEPQEIIKSVSGGAAAGKRKVKKYATTKDEEGFLVTKEEEVWESFSEDENISTGTSNVVRNKPTTVNIATKK, the response rises from ~35 Miller units to ~46 Miller units.
